Sequences and labels used below:
B1: HDV Ribozyme (parent)
chain: GGCCGGCAUGGUCCCAGCCUCCUCGCUGGCGCCGGCUGGGCAACAUUCCGAGGGGACCGUCCCCUCGGUAAUGGCGAAUGGGACCCA

This data set covers variants of B1. Description: self-cleavage, relative activity (ratio to wild type); higher = more cleavage; co-transcriptional.
As to C19G C75A, the self-cleavage came to 0.0773.

On to C19A U65A, for which the self-cleavage came to 0.273.

For C19A U65G, the self-cleavage came out at 0.189.

On to C19A U65C, for which the self-cleavage came out at 0.155.

Consider C18U G54C, for which the self-cleavage amounted to 0.606.

On to C18G A83U, for which the self-cleavage turned out to be 0.101.

Take C19G G38U: the self-cleavage worked out at 0.0852.

For C19G G38C, the self-cleavage amounted to 0.0639.

Take C18A G38A: the self-cleavage is 0.113.

In the case of C18A C57U, the self-cleavage is 0.086.

C19A G50C: the self-cleavage worked out at 0.0923.

As for C19A G55U, the self-cleavage came to 0.0923.

With C19A G55C, the self-cleavage amounted to 0.0489.

On to C18G G67A, for which the self-cleavage was 0.101.

As for G17U U47A, the self-cleavage is 0.256.

Turning to C19A C84U, the self-cleavage was determined as 0.0804.

G17U U23G: the self-cleavage was found to be 0.0692.

Regarding G17C U60G, the self-cleavage was found to be 0.356.

For G17U U72G, the self-cleavage stood at 0.

Take C18G U47C: the self-cleavage turned out to be 0.185.

With C19A G59U, the self-cleavage is 0.134.

With G17U G31C, the self-cleavage was 0.0361.

On to G17U G55U, for which the self-cleavage stood at 0.415.

Turning to G17U G55C, the self-cleavage is 0.453.

Take G17U G54C: the self-cleavage is 0.536.

Take G17U G54U: the self-cleavage was determined as 0.546.

As for G17U A71G, the self-cleavage was 0.323.

As for C19G C44A, the self-cleavage was 0.

Turning to C19G C44U, the self-cleavage amounted to 0.0563.

Turning to C19G C44G, the self-cleavage came to 0.0959.

Take G17U C84G: the self-cleavage was 0.439.

As to C19G C30G, the self-cleavage worked out at 0.0739.

Consider C19G C30A, for which the self-cleavage is 0.0225.

C18G A43U: the self-cleavage was found to be 0.189.

With C19G G28U, the self-cleavage is 0.208.

Regarding C19A C33G, the self-cleavage was 0.0475.

Take C18U A51G: the self-cleavage stood at 0.623.

Turning to C18A C49G, the self-cleavage turned out to be 0.119.

Turning to C18A C49A, the self-cleavage came to 0.111.

In the case of C19A C66U, the self-cleavage turned out to be 0.116.

Consider C18A G73A, for which the self-cleavage was determined as 0.0755.

Turning to C19G C49G, the self-cleavage was 0.0426.

Turning to G17U U60C, the self-cleavage was 0.601.

As for G17U G28A, the self-cleavage was found to be 0.188.

C18U A42C: the self-cleavage was 0.185.

Take C19G C61A: the self-cleavage was found to be 0.106.

As to C19A G40A, the self-cleavage amounted to 0.109.

Consider C18A G59C, for which the self-cleavage amounted to 0.0639.

On to C18U U20C, for which the self-cleavage was 0.0923.

As for C18G U79C, the self-cleavage was 0.0639.

Turning to G17U C58A, the self-cleavage was 0.847.

On to C19A G25A, for which the self-cleavage was 0.138.

With C18G U60A, the self-cleavage is 0.

C18G U60C: the self-cleavage was determined as 0.0692.

In the case of C18G C66U, the self-cleavage was determined as 0.166.

On to G17U A51G, for which the self-cleavage is 0.34.

Turning to C19G A78C, the self-cleavage stood at 0.119.

As to C19G C84U, the self-cleavage was found to be 0.0504.

Consider C18G A77G, for which the self-cleavage amounted to 0.0755.

With C18G A77C, the self-cleavage was determined as 0.178.

For C18A A70U, the self-cleavage is 0.0898.

As for C19A G29U, the self-cleavage was determined as 0.0733.

For the variant C18A C22A, the self-cleavage came out at 0.117.

In the case of C19G C32G, the self-cleavage worked out at 0.0462.

Consider C18A A78U, for which the self-cleavage stood at 0.128.

With C19A C44G, the self-cleavage was determined as 0.0615.

For C18U A83G, the self-cleavage is 0.356.

As to C18U C19A, the self-cleavage was 0.0906.

As for C18A C32A, the self-cleavage was 0.106.

On to C18U C41U, for which the self-cleavage is 0.49.

For the variant C19G A56C, the self-cleavage came out at 0.0489.

As for C18G C57G, the self-cleavage came to 0.133.

Turning to C18G C57U, the self-cleavage worked out at 0.237.

As for C19A C49U, the self-cleavage amounted to 0.185.

Turning to C18A C84U, the self-cleavage turned out to be 0.0997.

Consider C19A A78G, for which the self-cleavage stood at 0.0845.

For C19A A78U, the self-cleavage was found to be 0.138.

As to C18G C62G, the self-cleavage worked out at 0.

Consider C18A G67U, for which the self-cleavage was 0.117.

Consider C18A G67C, for which the self-cleavage was 0.123.

Take G17U C33G: the self-cleavage worked out at 0.0831.

In the case of G17U C33A, the self-cleavage is 0.143.

For the variant G17C U65A, the self-cleavage amounted to 0.353.

As to G17C U65G, the self-cleavage stood at 0.249.

For C18A C86A, the self-cleavage was found to be 0.106.

For the variant C18A C86U, the self-cleavage was determined as 0.0898.

G17U G74A: the self-cleavage amounted to 0.129.

As to C19A C24A, the self-cleavage came to 0.0831.

Consider C18G G39A, for which the self-cleavage came out at 0.

For G17U C41U, the self-cleavage came out at 0.253.

As for G17U C41A, the self-cleavage turned out to be 0.104.

For C19A G35A, the self-cleavage came to 0.111.

Take C19A G35U: the self-cleavage was 0.115.

For the variant G17U A43G, the self-cleavage was determined as 0.237.

On to C18A A56G, for which the self-cleavage worked out at 0.162.

As to C18U U65G, the self-cleavage stood at 0.554.

Take C18U U65A: the self-cleavage was determined as 0.635.

As to C18G G80C, the self-cleavage was found to be 0.0707.

In the case of C18G C33A, the self-cleavage is 0.

For the variant G17U G81A, the self-cleavage stood at 0.415.

On to G17U G81U, for which the self-cleavage was 0.381.

Turning to G17U G81C, the self-cleavage worked out at 0.197.

As for C19A G76A, the self-cleavage is 0.185.

With C18A G40C, the self-cleavage amounted to 0.162.

Consider C18A G55C, for which the self-cleavage was found to be 0.133.

Consider C18A G55U, for which the self-cleavage was found to be 0.197.

With C18U C86G, the self-cleavage is 0.704.

For C18G C26G, the self-cleavage stood at 0.0831.

In the case of C18G C26A, the self-cleavage worked out at 0.175.

On to C18A A87U, for which the self-cleavage is 0.126.

With C19A G80C, the self-cleavage stood at 0.0665.

As to C18U U47G, the self-cleavage turned out to be 0.608.

In the case of C18A C48G, the self-cleavage turned out to be 0.102.

On to C19A G67U, for which the self-cleavage stood at 0.281.

For C19A G67A, the self-cleavage turned out to be 0.0941.

In the case of C18G G82U, the self-cleavage was found to be 0.219.

As for C18G U27A, the self-cleavage was 0.0665.

For C19G G73C, the self-cleavage came out at 0.0244.

As for C18U G39C, the self-cleavage was found to be 0.0405.

On to C19A G28A, for which the self-cleavage stood at 0.225.

Take C18G U72A: the self-cleavage stood at 0.

As for G17U U69C, the self-cleavage was 0.869.

For the variant C18A A51C, the self-cleavage was 0.0755.

Take G17U G39A: the self-cleavage was 0.128.

In the case of C18A C21A, the self-cleavage is 0.125.

On to C18A C21U, for which the self-cleavage stood at 0.089.

As for G17C U46G, the self-cleavage stood at 0.0923.

For C18A C19G, the self-cleavage was found to be 0.145.

C18A C19A: the self-cleavage was found to be 0.128.

Regarding C18G U23G, the self-cleavage turned out to be 0.

Turning to C19A U72A, the self-cleavage came to 0.0504.

In the case of C18U C24U, the self-cleavage is 0.141.

C18U G28C: the self-cleavage came to 0.089.

Regarding C19A G38C, the self-cleavage was found to be 0.0248.

In the case of G17C G73A, the self-cleavage was found to be 0.156.

With G17C G73U, the self-cleavage was 0.0852.

On to G17C G73C, for which the self-cleavage amounted to 0.0875.

For the variant C19A A83U, the self-cleavage came to 0.138.

On to C19A A83C, for which the self-cleavage is 0.0426.

As for G17C U23C, the self-cleavage turned out to be 0.208.

Regarding G17C G59C, the self-cleavage turned out to be 0.243.

For the variant C18A A77C, the self-cleavage came to 0.

Take C18A G29U: the self-cleavage stood at 0.821.

Turning to C18A G29C, the self-cleavage came to 0.266.

In the case of C18U G81A, the self-cleavage was found to be 0.265.

On to C18U G81C, for which the self-cleavage is 0.136.

As for G17C G67A, the self-cleavage is 0.249.

Consider G17C G67U, for which the self-cleavage was determined as 0.358.

On to C18U C33A, for which the self-cleavage worked out at 0.0354.

On to C18G G73U, for which the self-cleavage stood at 0.119.

C18U C58A: the self-cleavage was found to be 0.612.

With C19G A70C, the self-cleavage turned out to be 0.

Take G17U C22A: the self-cleavage was 0.0831.

Consider C18U G76C, for which the self-cleavage amounted to 0.978.

With C18G C32G, the self-cleavage came to 0.107.

For the variant C19A A87C, the self-cleavage was found to be 0.148.

For the variant C19A A87G, the self-cleavage turned out to be 0.11.

Take C19G C64A: the self-cleavage came out at 0.0528.

Consider G17U A70G, for which the self-cleavage came out at 0.674.

With C18G G38C, the self-cleavage was 0.

For the variant C18G G38U, the self-cleavage came out at 0.0386.

As for C19A C22U, the self-cleavage stood at 0.0203.

In the case of C19A C22G, the self-cleavage amounted to 0.155.

For the variant C18G C44G, the self-cleavage was determined as 0.0723.

Take C19A C57G: the self-cleavage worked out at 0.119.

With C19A C57A, the self-cleavage is 0.0801.

As to C18A U37C, the self-cleavage was 0.0361.
